Biological target: T1, SFR1^dN202 mutant protein (mouse, UniProt Q8BP27 203-319)
T1 sequence (looked up): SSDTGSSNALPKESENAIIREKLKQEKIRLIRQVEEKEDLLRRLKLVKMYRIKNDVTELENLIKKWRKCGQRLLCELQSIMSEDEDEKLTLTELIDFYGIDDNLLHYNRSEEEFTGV
Assay: AUC

stoichiometry N: 1
B1: mouse SWI5 (natural protein, UniProt Q8K3D3 1-89, looked up)
chain: MIDENNDVSEEALSSDIKKLKEKHDMLDKEISQLIAEGYRVIELEKHISLLHEYNDIKDVSQMLLGKLAVTRGVTTKELYPDFDLNLND
